Test: Biotin binding of avidin triple mutant (D4)
Procedure: After incubation at room temperature for 20 hr, the protein is precipitated by adding 50 μL to 200 μL 0.2 M ZnSO4 followed by 200 μL 0.2 M NaOH. The protein precipitate is pelleted by centrifugation at 16,500 g for 5 min. The biotin bound by D4 is calculated from the total ^3H-biotin added minus the ^3H-biotin in the supernatant. The Kd is obtained using a nonlinear regression analysis (one-site binding hyperbola) with SigmaPlot (Systat Software; Point Richmond, Calif.).
Methods provided in the Methods section above are used to make and test the monovalent avidin. We produce an avidin tetramer consisting of three subunits unable to bind biotin and one subunit that binds biotin as well as wild-type avidin. A triple mutant N12A, S16D, T35A is produced. […] The binding of this triple mutant (composed of “Dead” subunits-D) is so weak that it is difficult to measure. To generate monovalent avidin the wild-type subunit is first tagged with a His6-tag (“Alive” subunit-A). Then D and A subunits are combined at a molar ratio of 3:1 in guanidinium hydrochloride and refolded by rapidly diluting the mixture into PBS. This refold generates a mix of avidin tetramers of different compositions.

B1: D4 avidin: Avidin tetramer of four Dead subunits (N12A, S16D, T35A, SEQ ID NO:18) (protein)
chain: ARKCSLTGKWTADLGDNMTIGAVNSRGEFTGTYIAAVTATSNEIKESPLHGTQNTINKRTQPTFGFTVNWKFSESTTVFTGQCFIDRNGKEVLKTMWLLRSSVNDIGDDWKATRVGINIFTRLRTQKE
modifications: tetramer
For B1, the “biotin binding of avidin triple mutant” value was “negligible biotin binding”.

Source: patent US20070105162A1, “Monovalent avidin and streptavidin compositions” (Massachusetts Institute of Technology, priority 2005, published 2007)
